For assay [1], the target named is T1, CD122/CD132 on human lymphocytes (CD8+ T cells and NK cells in human PBMCs) (human, UniProt P31785 23-369).
T1 sequence 1: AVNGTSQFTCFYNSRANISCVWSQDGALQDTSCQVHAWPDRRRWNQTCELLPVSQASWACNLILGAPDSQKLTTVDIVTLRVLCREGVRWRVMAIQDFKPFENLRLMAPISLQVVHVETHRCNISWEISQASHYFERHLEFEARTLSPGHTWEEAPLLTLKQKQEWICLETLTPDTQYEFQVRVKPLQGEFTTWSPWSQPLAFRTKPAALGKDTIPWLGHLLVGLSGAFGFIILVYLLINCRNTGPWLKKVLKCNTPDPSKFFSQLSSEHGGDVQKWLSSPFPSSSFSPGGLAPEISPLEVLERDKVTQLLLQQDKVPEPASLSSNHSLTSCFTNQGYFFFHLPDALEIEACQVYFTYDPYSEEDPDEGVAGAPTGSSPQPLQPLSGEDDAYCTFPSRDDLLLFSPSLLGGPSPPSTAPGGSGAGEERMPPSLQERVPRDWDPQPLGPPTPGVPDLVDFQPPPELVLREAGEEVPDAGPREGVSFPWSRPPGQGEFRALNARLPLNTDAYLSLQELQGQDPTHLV
T1 sequence 2: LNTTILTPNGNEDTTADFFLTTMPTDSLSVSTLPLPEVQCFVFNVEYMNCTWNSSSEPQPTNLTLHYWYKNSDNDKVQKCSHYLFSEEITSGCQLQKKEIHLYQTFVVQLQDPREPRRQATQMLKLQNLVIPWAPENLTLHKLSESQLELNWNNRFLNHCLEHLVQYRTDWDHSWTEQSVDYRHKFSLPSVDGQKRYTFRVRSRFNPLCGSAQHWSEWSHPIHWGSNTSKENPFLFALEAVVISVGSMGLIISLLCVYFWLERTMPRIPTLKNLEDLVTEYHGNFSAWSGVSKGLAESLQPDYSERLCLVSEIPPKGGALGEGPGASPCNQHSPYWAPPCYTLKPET
As to the kind of experiment: cell-based or functional assay.

For assay [2], the target named is T2, CD122/CD132 on cynomolgus monkey lymphocytes (CD8+ T cells and NK cells in cynomolgus PBMCs) (cynomolgus monkey, UniProt Q38J85 27-551; A0A2K5VGJ6 23-369).
T2 sequence (looked up) 1: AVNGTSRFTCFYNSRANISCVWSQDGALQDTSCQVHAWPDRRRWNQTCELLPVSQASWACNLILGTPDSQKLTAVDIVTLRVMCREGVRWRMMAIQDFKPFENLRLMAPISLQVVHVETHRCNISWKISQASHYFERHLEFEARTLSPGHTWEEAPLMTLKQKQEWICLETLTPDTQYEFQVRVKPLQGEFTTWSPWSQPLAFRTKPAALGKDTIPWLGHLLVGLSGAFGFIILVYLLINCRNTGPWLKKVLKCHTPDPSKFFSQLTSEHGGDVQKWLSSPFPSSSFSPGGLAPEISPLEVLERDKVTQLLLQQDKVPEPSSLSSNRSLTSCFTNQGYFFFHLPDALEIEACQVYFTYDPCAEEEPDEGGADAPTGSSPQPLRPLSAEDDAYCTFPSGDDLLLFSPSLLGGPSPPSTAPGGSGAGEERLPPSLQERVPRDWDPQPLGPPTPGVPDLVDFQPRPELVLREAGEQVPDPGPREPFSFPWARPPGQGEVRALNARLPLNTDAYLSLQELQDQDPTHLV
T2 sequence (looked up) 2: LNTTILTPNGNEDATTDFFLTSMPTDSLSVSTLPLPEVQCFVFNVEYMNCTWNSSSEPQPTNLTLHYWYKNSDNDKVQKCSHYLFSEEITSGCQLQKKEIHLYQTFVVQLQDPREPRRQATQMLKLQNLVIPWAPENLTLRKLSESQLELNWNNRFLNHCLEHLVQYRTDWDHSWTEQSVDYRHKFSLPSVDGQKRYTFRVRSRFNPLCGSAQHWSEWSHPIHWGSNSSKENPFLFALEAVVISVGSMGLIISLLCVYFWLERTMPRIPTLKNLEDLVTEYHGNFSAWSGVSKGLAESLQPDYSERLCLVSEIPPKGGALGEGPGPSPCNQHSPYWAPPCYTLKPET
As to the kind of experiment: cell-based or functional assay.

A further assay has as its target T3, cynomolgus monkey FcRn (cynomolgus monkey, UniProt Q8SPV9 24-297; Q8SPW0 21-119).
T3 construct: The construct is not described
Briefly: BLI, pH 6.0; tested as the mixture. For orientation: Biolayer interferometry detects binding as a change in optical thickness at a sensor tip.

The next assay addresses T4, mouse FcRn (mouse, UniProt Q61559 22-297; P01887 21-119).
T4 construct: The construct is not described
T4 sequence (looked up): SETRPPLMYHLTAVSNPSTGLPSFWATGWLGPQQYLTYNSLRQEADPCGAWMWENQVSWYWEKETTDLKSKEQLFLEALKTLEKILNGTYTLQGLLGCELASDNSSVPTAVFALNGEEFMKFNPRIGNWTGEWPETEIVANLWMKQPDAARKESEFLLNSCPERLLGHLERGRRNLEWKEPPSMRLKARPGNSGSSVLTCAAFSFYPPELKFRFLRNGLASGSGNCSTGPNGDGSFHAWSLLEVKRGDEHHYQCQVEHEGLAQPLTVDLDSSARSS
T4 sequence (b2m, looked up): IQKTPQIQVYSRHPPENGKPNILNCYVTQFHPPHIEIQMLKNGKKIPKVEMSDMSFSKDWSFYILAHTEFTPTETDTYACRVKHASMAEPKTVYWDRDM
Briefly: BLI, pH 6.0; tested as the mixture.

The next assay deals with T5, human FcRn (human, UniProt P55899 24-297; P61769 21-119).
T5 construct: The construct is not described; also called human neonatal Fc receptor
Briefly: BLI, pH 6.0; tested as the mixture.

Assay [3] deals with T6, human complement component 1q (C1q) (human, UniProt P02745 23-245; P02746 28-253; P02747 29-245).
T6 construct: The subunit composition is from general knowledge; also called human C1q
As to the kind of experiment: BLI; tested as the mixture XENP24306+XENP32803.

We go through two molecules from patent US20230149509A1 (Genentech, published 2023).

T6 sequence (P02745 23-245 limits assumed, chain 1 of 3): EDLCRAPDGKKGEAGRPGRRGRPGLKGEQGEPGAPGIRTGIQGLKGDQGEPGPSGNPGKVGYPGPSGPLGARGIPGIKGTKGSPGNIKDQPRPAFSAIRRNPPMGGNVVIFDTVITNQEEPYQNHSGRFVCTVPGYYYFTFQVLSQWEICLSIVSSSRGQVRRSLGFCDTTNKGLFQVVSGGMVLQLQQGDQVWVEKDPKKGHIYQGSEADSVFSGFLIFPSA
T6 sequence (P02746 28-253 limits assumed, chain 2 of 3): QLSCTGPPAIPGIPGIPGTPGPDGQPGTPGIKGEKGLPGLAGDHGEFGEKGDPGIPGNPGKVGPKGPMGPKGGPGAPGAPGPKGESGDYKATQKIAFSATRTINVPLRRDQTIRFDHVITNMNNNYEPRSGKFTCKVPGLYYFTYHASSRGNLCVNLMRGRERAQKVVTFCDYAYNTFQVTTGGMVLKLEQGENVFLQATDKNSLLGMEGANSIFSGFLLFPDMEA
T6 sequence (P02747 29-245 limits assumed, chain 3 of 3): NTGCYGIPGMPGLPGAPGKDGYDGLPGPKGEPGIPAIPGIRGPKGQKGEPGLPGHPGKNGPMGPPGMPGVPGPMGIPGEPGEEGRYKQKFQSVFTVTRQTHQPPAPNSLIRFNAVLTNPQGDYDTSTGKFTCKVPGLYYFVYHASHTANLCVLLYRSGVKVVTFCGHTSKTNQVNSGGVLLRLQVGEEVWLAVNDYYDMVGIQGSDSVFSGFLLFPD
T5 sequence (P55899 24-297 limits assumed, chain 1 of 2): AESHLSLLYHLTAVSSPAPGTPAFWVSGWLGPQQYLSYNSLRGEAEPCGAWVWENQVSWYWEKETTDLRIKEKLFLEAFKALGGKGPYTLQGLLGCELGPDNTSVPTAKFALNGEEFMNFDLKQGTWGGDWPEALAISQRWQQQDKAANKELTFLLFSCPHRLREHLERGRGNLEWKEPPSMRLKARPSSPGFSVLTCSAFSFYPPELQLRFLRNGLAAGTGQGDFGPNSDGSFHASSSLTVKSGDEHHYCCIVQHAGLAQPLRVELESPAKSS
T5 sequence (P61769 21-119 limits assumed, chain 2 of 2): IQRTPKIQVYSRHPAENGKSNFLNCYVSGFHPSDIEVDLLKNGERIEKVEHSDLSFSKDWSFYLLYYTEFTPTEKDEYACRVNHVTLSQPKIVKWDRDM
T3 sequence (Q8SPV9 24-297 limits assumed, chain 1 of 2): as the sequence (P55899 24-297 limits assumed, chain 1 of 2) above, with N39D, E44Q, G99S, S189G, S190N, L217M, S269T counted along it
T3 sequence (Q8SPW0 21-119 limits assumed, chain 2 of 2): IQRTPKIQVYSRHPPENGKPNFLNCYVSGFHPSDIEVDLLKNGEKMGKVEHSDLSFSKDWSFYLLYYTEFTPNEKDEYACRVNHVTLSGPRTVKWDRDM

B1: XENP24306 (Fc fusion)
chain 1: NWVNVISDLKKIEDLIQSMHIDATLYTESNVHPSCKVTAMKCFLLELQVISLESGDASIHDTVQDLIILANNSLSSNGNVTESGCKECEELEEKNIKEFLQSFVHIVQMFINTSGGGGSEPKSSDKTHTCPPCPAPPVAGPSVFLFPPKPKDTLMISRTPEVTCVVVDVKHEDPEVKFNWYVDGVEVHNAKTKPREEEYNSTYRVVSVLTVLHQDWLNGKEYKCKVSNKALPAPIEKTISKAKGQPREPQVYTLPPSREEMTKNQVSLTCDVSGFYPSDIAVEWESDGQPENNYKTTPPVLDSDGSFFLYSKLTVDKSRWEQGDVFSCSVLHEALHSHYTQKSLSLSPGK
chain 2: ITCPPPMSVEHADIWVKSYSLYSRERYICNSGFKRKAGTSSLTECVLNKATNVAHWTTPSLKCIRGGGGSEPKSSDKTHTCPPCPAPPVAGPSVFLFPPKPKDTLMISRTPEVTCVVVDVKHEDPEVKFNWYVDGVEVHNAKTKPREEQYNSTYRVVSVLTVLHQDWLNGKEYKCKVSNKALPAPIEKTISKAKGQPREPQVYTLPPSREQMTKNQVKLTCLVKGFYPSDIAVEWESNGQPENNYKTTPPVLDSDGSFFLYSKLTVDKSRWQQGNVFSCSVLHEALHSHYTQKSLSLSPGK
notes: All experiments used a mixture of XENP24306 (~82%) and XENP32803 (~18%), printed as 'XENP24306+XENP32803'; Each result is written once for each of the two members; also called XmAb24306; XENP24306+XENP32803 (the ~82% component of the tested combination)
For B1, in assay [1], the “CD8+ T cell proliferation (Ki67+) in human PBMCs, EC50” value was found to be 12.7 µg/mL; the “NK-cell proliferation (Ki67+) in human PBMCs, EC50” value is 1.2 µg/mL; the “potency on CD8+ terminal effector T cell proliferation (Ki67) in human PBMC, fold lower than XENP22853 (wild-type IL-15/wild-type IL-15Rα heterodimer Fc fusion)” value is around 400 fold; the “potency on CD8+ terminal effector T cell proliferation (Ki67) in human PBMC, fold lower than recombinant wild-type IL-15” value was around 900 fold. Further, in assay [2], the “CD8+ T cell proliferation in cynomolgus monkey PBMCs, EC50” value was determined as 3.8 µg/mL and the “NK-cell proliferation in cynomolgus monkey PBMCs, EC50” value was determined as 0.5 µg/mL. The binding result with cynomolgus monkey FcRn is reported as “binds”. For the same molecule, the binding result with mouse FcRn was “binds”. In addition, in the assay with human FcRn, the binding result was “binds”. In addition, the binding result in assay [3] is recorded as “no binding”.

B2: XENP32803 (Fc fusion)
chain 1: NWVNVISDLKKIEDLIQSMHIDATLYTESNVHPSCKVTAMKCFLLELQVISLESGDASIHDTVQDLIILANNSLSSNGNVTESGCKECEELEEKNIKEFLQSFVHIVQMFINTSGGGGSEPKSSDKTHTCPPCPAPPVAGPSVFLFPPKPKDTLMISRTPEVTCVVVDVKHEDPEVKFNWYVDGVEVHNAKTKPREEEYNSTYRVVSVLTVLHQDWLNGKEYKCKVSNKALPAPIEKTISKAKGQPREPQVYTLPPSREEMTKNQVSLTCDVSGFYPSDIAVEWESDGQPENNYKTTPPVLDSDGSFFLYSKLTVDKSRWEQGDVFSCSVLHEALHSHYTQKSLSLSPGK
chain 2: ITCPPPMSVEHADIWVKSYSLYSRERYICNSGFKRKAGTSSLTECVLNKATNVAHWTTPSLKCIRGGGGSEPKSSDKTHTCPPCPAPPVAGPSVFLFPPTPKDTLMISRTPEVTCVVVDVKHEDPEVKFNWYVDGVEVHNAKTKPREEQYNSTYRVVSVLTVLHQDWLNGKEYKCKVSNKALPAPIEKTISKAKGQPREPQVYTLPPSREQMTKNQVKLTCLVKGFYPSDIAVEWESNGQPENNYKTTPPVLDSDGSFFLYSKLTVDKSRWQQGNVFSCSVLHEALHSHYTQKSLSLSPGK
notes: All experiments used a mixture of XENP24306 (~82%) and XENP32803 (~18%), printed as 'XENP24306+XENP32803'; Each result is written once for each of the two members; also called XENP24306+XENP32803 (the ~18% component of the tested combination); IL15/IL15Rα heterodimeric protein
B2: in assay [1], the “CD8+ T cell proliferation (Ki67+) in human PBMCs, EC50” value came out at 12.7 µg/mL; the “NK-cell proliferation (Ki67+) in human PBMCs, EC50” value amounted to 1.2 µg/mL; the “potency on CD8+ terminal effector T cell proliferation (Ki67) in human PBMC, fold lower than XENP22853 (wild-type IL-15/wild-type IL-15Rα heterodimer Fc fusion)” value was around 400 fold; the “potency on CD8+ terminal effector T cell proliferation (Ki67) in human PBMC, fold lower than recombinant wild-type IL-15” value was around 900 fold. For the same molecule, in assay [2], the “CD8+ T cell proliferation in cynomolgus monkey PBMCs, EC50” value was 3.8 µg/mL and the “NK-cell proliferation in cynomolgus monkey PBMCs, EC50” value worked out at 0.5 µg/mL. In addition, the binding result with cynomolgus monkey FcRn is reported as “binds”. Besides, in the assay with mouse FcRn, the binding result is reported as “binds”. Besides, the binding result in the assay with human FcRn is on record as “binds”. Moreover, the binding result in assay [3] was “no binding”.
